The text below walks through data of paper PMC2679042 (2009).

Experiment [1] concerns the target proMMP-2 (Homo sapiens) (UniProt P08253). Conditions: cited from earlier work.
Experiment [2] deals with T1, proMMP-2 (Homo sapiens, UniProt P08253).
T1 chain: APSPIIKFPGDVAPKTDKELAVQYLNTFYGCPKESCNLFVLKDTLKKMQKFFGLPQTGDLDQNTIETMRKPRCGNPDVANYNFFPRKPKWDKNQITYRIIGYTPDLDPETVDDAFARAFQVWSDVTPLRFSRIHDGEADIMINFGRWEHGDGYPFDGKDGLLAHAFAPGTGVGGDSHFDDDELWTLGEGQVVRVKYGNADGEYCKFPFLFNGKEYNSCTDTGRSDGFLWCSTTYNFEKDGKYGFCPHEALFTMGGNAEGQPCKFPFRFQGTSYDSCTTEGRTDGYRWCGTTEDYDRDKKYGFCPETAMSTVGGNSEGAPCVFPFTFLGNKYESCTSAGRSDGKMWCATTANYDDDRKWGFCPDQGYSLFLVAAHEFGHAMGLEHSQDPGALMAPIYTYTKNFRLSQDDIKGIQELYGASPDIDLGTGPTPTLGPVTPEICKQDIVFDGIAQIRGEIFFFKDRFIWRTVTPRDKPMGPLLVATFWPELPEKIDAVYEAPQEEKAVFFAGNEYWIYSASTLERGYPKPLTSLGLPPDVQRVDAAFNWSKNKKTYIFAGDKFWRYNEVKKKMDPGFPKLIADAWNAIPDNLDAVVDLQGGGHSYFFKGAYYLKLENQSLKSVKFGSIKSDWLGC
Put plainly: tryptophan fluorescence quenching.

Turning to bone sialoprotein (from UniProt P21815), the Kd in experiment [1] is 2.9 nM.

B1: bone sialoprotein (protein)
chain: FSMKNLHRRVKIEDSEENGVFKYRPRYYLYKHAYFYPHLKRFPVQGSSDSSEENGDDSSEEEEEEEETSNEGENNEESNEDEDSEAENTTLSATTLGYGEDATPGTGYTGLAAIQLPKKAGDITNKATKEKESDEEEEEEEEGNENEESEAEVDENEQGINGTSTNSTEAENGNGSSGGDNGEEGEEESVTGANAEDTTETGRQGKGTSKTTTSPNGGFEPTTPPQVYRTTSPPFGKTTTVEYEGEYEYTGANEYDNGYEIYESENGEPRGDNYRAYEDEYSYFKGQGYDGYDGQNYYHHQ
In experiment [2], B1 showed a dissociation constant (Kd) of 270 nM.
